One molecule from US8598081B2, “Specific delivery of agrochemicals” (priority 2010, dated 2013) can be followed below.

This assay relates to surface of grass leaves. Kind of assay: VHH binding to non-fixed leaf discs, grass. The note with it: 5 μg/ml, detection with anti-histidine Alexa-488. The method, then: VHH binding to non-fixed leaf discs of potato (variety Desiree), black nightshade, grass, wheat or azalea was investigated. For comparison, binding of CBM3a to non-fixed leaf discs of potato (variety Desiree) was analyzed in parallel. Leaf discs were prepared by punching a fresh potato leaf with a 5 mm belt hole puncher tool. Leaf discs were put immediately in wells of a 96-well plate containing 200 μl per well 5% MPBS or PBS, and incubated for 30 minutes. Leaf discs were transferred to solutions containing 5 μg/ml VHH antibody fragment, respectively, 5 μg/ml CBM3a in 2% MPBS or PBS and incubated for 60-90 minutes. Unbound VHH or CBM3a proteins were removed by washing three times with 2% MPBS or PBS. Bound VHH or CBM3a proteins were detected with incubation with monoclonal mouse anti-histidine antibodies directly conjugated with Alexa-488 fluorescent dye (Abd Serotec) in 1% MPBS for 1 hour. Unbound antibodies were removed by washing three times with PBS. Leaf discs were put on glass slides, covered with cover slips, and analyzed by microscopy or on a macrozoom microscope system (Nikon) or a SP5 confocal microscope system (Leica).

B1: VHH 3E6: VHH binding gum arabic, potato lectin and leaf surface; SEQ ID NO:7 by order of the list (protein, listed as Lama glama)
VHH: QVQLQESGGGLVQPGGTLSLSCAASGFNVRWYGMGWFRQAPGKEREGVACISALQETTAYADSVKGRFTLSRDNPKNTLSLQMNNLQPEDTGVYYCATTDCDDSSRMTYTSYLGQGTQVTVSS
modifications: 3E6
In the case of B1, the “binding to native grass leaf surface (fluorescence microscopy)” value is “binding to leaf surface and wounded plant tissue”. Moreover, for the setting “listed as 3E6”, the “binding to native grass leaf surface (fluorescence microscopy)” value is on record as “bind specifically”.
